This note sets out measurements from paper PMC5938747.

The subject of this series is Nc1ccn([C@@H]2O[C@H](COP(=O)(O)OP(=O)(O)O)[C@@H](O)[C@H]2O)c(=O)n1. In words: purified protein. To be noted: 10 mM ATP, MgCl2 4 mM excess, pH 8.0, 25 °C.

For the substance “Cj1415 (cytidine diphosphoramidate kinase, CDK) (Campylobacter jejuni subsp. jejuni NCTC 11168 = ATCC 700819)”, the Michaelis constant (Km) (in general, the concentration of substrate that gives half-maximal velocity) is given as 4.2 ± 0.7 mM; the kcat (as a rule, the number of substrate molecules converted per active site and unit of time at saturation) worked out at 0.64 ± 0.04 s⁻¹.
